Experimental data taken from a protein production outcome set (Wang et al. 2014).

Assay: label from the status in PepcDB records

| Sequence | protein production |
| --- | --- |
| MTNNEYTDISNKETDVSPANIEQLKSVSMIWFVPFVALLIGAWMIYYQLSNEGPVITIAFDSAEGMEIGKTKIKSYNVDIGEVSNIVLNENADGVIVTARMTKNAEKLLNKNSDFWLVSPEISHTGISGLSTLISGVYIEFYPSSIHEEEVDELTSEFIALKDPPVTPPGAPGLHLTLNSNDQFAYSKGDPIIYKGLTVGQFEHIHFNFEERVVYYNAFIKAPYHQLVTTNTKFWDVSGLRMDLTADGLSIQTGNIETMLTNGVTFDVPKGMENGEEITERSYFDIYANYKEADDERYKYSVEYIVLVSNTIRGLSVGAPVEYRGVLIGHVKSINLLAQRNSDRPQIFDEDIKIPILISLQPGRVGLPDNEMGVSLMKQQHQLWIKDGLRASLKTGSLLTGSLFIDFQHYSDLNNEEENTQRTDFENSQYGEYTIIPSVDDEFSQITAKASQFIDNLNALPLEKISGNTNELITEFTQTAKSFQSVSDNLSGVLDGVNQQQLTQELKTTLQSYTKLSKDLSAGSKGYEDLRQTLSALTKVMNELQPLLNQLKHQPNGLIFESGKVDAIEPKKYTPNKKAE | failed |
| KLRDLDIIVTAPPAPGWGGRYWILVKLTTDDGITGWGECYAASVGPEAMRAVIEDVFARHMEGENPENIELMFRRVYSSGFTQRPDLTAIGAFSGLEIACWDILGKARGRPVWALLGGKMNPRIRAYTYLYPLPHHPITPFWTSADMAAESAADCVARGYTAVKFDPAGPYTLRGGHMPAMTDISLSVEFCRKIRAAVGDKADLLFGTHGQFTTAGAIRLGQAIEPYSPLWYEEPVPPDNVGAMAQVARAVRIPVATGERLTTKAEFAPVLREGAAAILQPALGRAGGIWEMKKVAAMAEVYNAQMAPHLYAGPVEWAANVHFAASIPNILMCESIETPFHDALIKGSIRVEGGYITPPEAPGLGIEVDEALARANPYHGTGLHLEMQEASCDYTNGNSFAGGAPHEEG | not failed |
| MTATQITGVVLAAGRSNRLGTPKQLLPYRDTTVLGATLDVARQAGFDQLILTLGGAASAVRAAMALDGTDVVVVEDVERGCAASLRVALARVHPRATGIVLMLGDQPQVAPATLRRIIDVGPATEIMVCRYADGVGHPFWFSRTVFGELARLHGDKGVWKLVHSGRHPVRELAVDGCVPLDVDTWDDYRRLLESVPSLEHHHHHH | failed |
| MDDIRCAIIIDPDLPPGVIANTAAVLAMSLGKRHPELVGQDLPDARGQPRQGITTVPIPVLKGGADQLRALRAAASETGLTLVELTSATRFTRSYQEYAAALAATPEEMVEYQGLALCGPGKRVRQLTGSLGLLRLEHHHHHH | failed |
| MNKRVQAFLAKMQEKELDGIIINNLKNVYYLTGFWGSNGTVFISRDRQVLVTDSRYIIAAKQETSGFEIVADRDELAVIAGIVKDMGLTRIGFEDEISVSYYHRMQAAFAGLNLLPQTQFVEGLRMIK | failed |
| SHMEIVPDTSVVIDGRVSDQVKADADPDTDVDGMGFAGATVVVPEAVVGELEAQANDGRETGWEGLEELQTLVDLAEEGTIDVEYVGRRPDAIEKREAGEGQIDALIRDIAGDRDATLVTSDDVQAEVARAKGLAVEFVDPVKRTVDRLQI | not failed |
| MRRCCGDLAASRGGCEPASRNLTRTRLTFAALGRINRPAEHDREDAMTRQEARDHEPRDQDAALSRRTLVRGLALGAAATMAGPALAQTGPAAPPTTITTPPRDFGPNGAPTTYFWDPDIIAVDPSFDDLAQPNTAIKRLYTGVLWAEGPAWSAQGRYLLWSDIPNNRQMRWSEDDGRISVFRSPSNNSNGNSFDFQGRQLSCEHLTRRVTRYEHDGTATVLCDNYNGKKLNSPNDVVAHPDGSYWFTDPPYGGQLYEGEPDAAGGPSNSGGKLNPRIGQPAGFTPGKRELPTNCYRIDPSGRVDLVVTEEQVPDPNGLCFSPDFKKLYVVSTGKGPGDSGPGGKGEIFVFDVGADNKLSNQKRFSDCTIDGVKCGPDGVRCDVNGNVWASSNAGRAVGYSGVTVWSPEGKLLGRIRLPEVCGNICFGGPKRNRLFMAASQSLYAVFTATQGAGPG | failed |
| MATSGTYVTEVPLKGSAKNHYKRWKSENQLFPDAIGHHIQGVTVHEGDWDSHGAIKSWNYTCDGKQEVFKEKRELDDQKMAVTFRGLDGHVMEQLKVYDVIFQFVPKSQEGCVCKVTMFWEKRYEDSPEPIKYMKFVTSLAADMDDHILKNQSKA | failed |
| MNTMVELRKLIVFLLSFTFLLYLLYVGINISKKLRIRRSPFFLMISGVGLITLGTFLDAIDKFIDVGIKNVIAACFTFGAILFVVFIIFLSNNFVCTVSLLYEDANMDKMTGAYNRKGINEIFQRSIAKQNSFYLMLFDLDETKRLNDKYGHAVGDKYIIGASAIIKDTIGNKGFVGRIGGDEFIALLKLENEVDVEKIKKLIKDQFCESFKQYGANISIGYSRFKEDGQEFEEIFQIADKNMYDDKKSNKKNKACF | failed |
